B1: GRB2 NSH3, P62993 (protein)
chain: MEAIAKYDFKATADDELSFKRGDILKVLNEECDQNWYKAELNGKDGFIPKNYIEMKPH
B2: GRB2 CSH3, P62993 (protein)
chain: QQPTYVQALFDFDPQEDGELGFRRGDFIHVMDNSDPNWWKGACHGQTGMFPRNYVTPVNR

Experiments:
[1] = biological target: SOS1 S5 (Homo sapiens), Q07889; assay: NMR
[2] = biological target: full-length GRB2 (human) (UniProt P62993); assay: NMR titration; 15N-labelled full-length GRB2 (about 200-270 uM) titrated with SOS1 PRM peptides (up to 1:12 S4, 1:36 S5 and S9, 1:24 S10), 2D 1H-15N HSQC, 25 °C, 20 mM sodium phosphate, 0.05% NaN3; global fit of residues with CSP over 0.03 ppm to an independent two-site model (values in parentheses: single-binding site model)

| Binder | Kd [1] [µM] | KD1 (NSH3 site, independent two-site model) [2] [µM] | KD2 (CSH3 site, independent two-site model) [2] [µM] | KD for NSH3, single-binding site model [2] [µM] |
| --- | --- | --- | --- | --- |
| B1 | 40.9 | – | – | – |
| B2 | 901 | – | – | – |
| PKLPPKTYKREH [SOS1 S10 PRM (…)] | – | 483 | 579 | – |
| DSPPAIPPRQPT [SOS1 S5 PRM (…)] | – | 40.9 | 901 | 44.9 |
| IAGPPVPPRQST [SOS1 S9 PRM (…)] | – | 28.4 | 516 | 35 |

— paper PMC11391413
